± gives the standard deviation of the averaged measurements.
B1: library; a variant is named by its letters at N, in order (parent)
chain: GCUGUCACCGGUGUAUUACCCUAGUGGUCGACCGGUCUGAUGAGUCUNNNNNNAGACGAAACAGC

Columns and labels:
[1] = variants of: B1; assay: FACS-Seq fitted mean relative fluorescence mCherry/BFP without ligand (log10 relative fluorescence); ligand: hypoxanthine (xanthine aptamer); higher = higher reporter protein expression; conditions: HEK293T, ligand present: no
Procedure, shortened: (§1)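 Lentivirally transduced HEK293T libraries carried an mCherry reporter with the ribozyme switch and an EF1α-BFP marker. Transduced cells were enriched, then incubated with or without ligand for 48 h and sorted into 6 bins by mCherry/BFP. Genomic DNA from each bin was PCR-amplified, barcoded and sequenced on MiSeq. Fluorescence was the fitted normal mean of log10(mCherry/BFP) bin counts, scaled to five spiked-in control ribozymes.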

[2] = variants of: B1; assay: normalized RNA/DNA level with ligand (relative to sTRSVctl = 100) (log10 (% of sTRSVctl)); ligand: hypoxanthine (xanthine aptamer); higher = less ribozyme self-cleavage, higher mRNA level; conditions: ligand concentration (+) RNA-Seq: 5 mM, HEK293T, reporter: mCherry (pCS4076), ligand present: yes
Procedure, shortened: (§2)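 HEK293T cells were transfected with library plasmids carrying ribozyme switches linked to an mCherry reporter, or an eGFP reporter in some ligand experiments, at 4 µg per well of a 6-well plate, with any ligand added 1 h beforehand. After 72 h, total RNA was extracted with EDTA, reverse-transcribed, amplified, barcoded and sequenced. RNA level was defined as RNA reads over DNA reads, normalized to a spiked-in non-cleaving sequence or to the top-ranked sequences. That value was multiplied by 100 and converted to log10, the top set was 25 sequences, and only sequences with ≥100 DNA reads were retained.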

[3] = variants of: B1; assay: normalized RNA/DNA level without ligand (relative to sTRSVctl = 100) (log10 (% of sTRSVctl)); ligand: hypoxanthine (xanthine aptamer); higher = less ribozyme self-cleavage, higher mRNA level; conditions: HEK293T, reporter: mCherry (pCS4076), ligand present: no
Procedure, shortened: as §2

[4] = variants of: B1; assay: FACS-Seq fitted mean relative fluorescence mCherry/BFP with ligand (log10 relative fluorescence); ligand: hypoxanthine (xanthine aptamer); ligand concentration (+) FACS-Seq: 5 mM; higher = higher reporter protein expression; conditions: HEK293T, ligand present: yes
Procedure, shortened: as §1

Row | Variant | FACS-Seq fitted mean (log10) [1] | normalized RNA/DNA level with ligand (log10) [2] | normalized RNA/DNA level without ligand (log10) [3] | FACS-Seq fitted mean (log10) [4]
1 | GUAGGC | 0.126 ± 0.003 | 1.87 ± 0.043 | 1.38 ± 0.043 | 0.611 ± 0.02
2 | GUACCA | 0.512 ± 0.037 | 1.944 ± 0.012 | 1.867 ± 0.006 | 0.532 ± 0.03
3 | GUACCG | 0.26 ± 0.029 | 1.903 ± 0.0046 | 1.624 ± 0.0025 | 0.511 ± 0.015
4 | AUACUA | 0.515 ± 0.014 | 1.9061 ± 0.00059 | 1.774 ± 0.001 | 0.512 ± 0.018
5 | AUACUG | 0.294 ± 0.022 | 1.86 ± 0.077 | 1.43 ± 0.088 | 0.634 ± 0.025
6 | CUAAUC | 0.365 ± 0.027 | 1.94 ± 0.037 | 1.9 ± 0.043 | 0.43119 ± 0.00031
7 | CUAAUG | 0.65 ± 0.052 | 1.922 ± 0.018 | 1.79 ± 0.068 | 0.577 ± 0.044
8 | UGUUAU | -0.225 ± 0.19 | 1.89 ± 0.0069 | 1.817 ± 0.0095 | -0.287 ± 0.069
9 | UUACCG | -0.405 ± 0.057 | 1.899 ± 0.011 | 1.75 ± 0.052 | -0.0713 ± 0.036
10 | GUAAUG | 0.27 ± 0.022 | 1.853 ± 0.0059 | 1.52 ± 0.028 | 0.529 ± 0.0072
11 | GUAAUC | 0.801 ± 0.026 | 1.95 ± 0.046 | 1.756 ± 0.012 | 0.81 ± 0.068
12 | GUAAUU | 0.444 ± 0.086 | 1.91 ± 0.047 | 1.9 ± 0.025 | 0.229 ± 0.036
13 | GUAGCC | 0.609 ± 0.017 | 1.982 ± 0.014 | 1.83 ± 0.02 | 0.678 ± 0.059
14 | GUAGCU | -0.279 ± 0.094 | 1.98 ± 0.03 | 1.88 ± 0.063 | -0.197 ± 0.0065
15 | AUAUCG | 0.607 ± 0.0094 | 1.86 ± 0.065 | 1.44 ± 0.045 | 0.756 ± 0.042
16 | UUAGGG | 0.351 ± 0.012 | 1.87 ± 0.037 | 1.69 ± 0.017 | 0.655 ± 0.028
17 | UUAGGC | 0.15 ± 0.015 | 1.95 ± 0.05 | 1.887 ± 0.014 | 0.181 ± 0.0045
18 | GGUUGG | -0.0305 ± 0.021 | 1.83 ± 0.074 | 1.27 ± 0.014 | 0.558 ± 0.021
19 | GGUUGC | -0.0647 ± 0.067 | 1.92 ± 0.037 | 1.52 ± 0.035 | 0.345 ± 0.043
20 | AUACAA | 0.364 ± 0.062 | 1.9 ± 0.037 | 1.76 ± 0.024 | 0.532 ± 0.013
21 | AUACAG | 0.1 ± 0.018 | 1.814 ± 0.017 | 1.45 ± 0.039 | 0.561 ± 0.031
22 | AUACAC | 0.399 ± 0.093 | 1.915 ± 0.019 | 1.762 ± 0.0072 | 0.456 ± 0.1
23 | UUAAGG | 0.505 ± 0.031 | 1.925 ± 0.015 | 1.77 ± 0.058 | 0.538 ± 0.077
24 | UUAAGA | 0.6835 ± 0.0045 | 1.884 ± 0.0019 | 1.68 ± 0.059 | 0.618 ± 0.02

Row | Variant | FACS-Seq fitted mean (log10) [1] | normalized RNA/DNA level with ligand (log10) [2] | normalized RNA/DNA level without ligand (log10) [3] | FACS-Seq fitted mean (log10) [4]
25 | CGUUAA | 0.0819 ± 0.044 | 1.89 ± 0.019 | 1.62 ± 0.049 | 0.118 ± 0.02
26 | AGUGGC | -0.495 ± 0.045 | 1.98 ± 0.033 | 1.83 ± 0.023 | 0.0818 ± 0.018
27 | CUACUA | 0.522 ± 0.16 | 1.9 ± 0.046 | 1.78 ± 0.02 | 0.51 ± 0.059
28 | UUAACG | 0.325 ± 0.025 | 1.94 ± 0.06 | 1.85 ± 0.052 | 0.41 ± 0.025
29 | UUACGU | 0.582 ± 0.017 | 1.95 ± 0.075 | 1.83 ± 0.025 | 0.566 ± 0.013
30 | AUACGG | -0.0504 ± 0.059 | 1.785 ± 0.012 | 1.27 ± 0.082 | 0.547 ± 0.084
31 | AUACGC | 0.365 ± 0.04 | 1.91 ± 0.056 | 1.72 ± 0.042 | 0.5194 ± 0.0036
32 | GUAUGA | 0.0955 ± 0.069 | 1.89 ± 0.049 | 1.64 ± 0.012 | 0.000695 ± 0.097
33 | GUAUGU | 0.23 ± 0.082 | 1.899 ± 0.013 | 1.77 ± 0.017 | 0.398 ± 0.0075
34 | GUAUGG | 0.0518 ± 0.044 | 1.783 ± 0.01 | 1.331 ± 0.013 | 0.63 ± 0.026
35 | UUAGAA | 0.092 ± 0.0099 | 1.89 ± 0.043 | 1.694 ± 0.0073 | 0.285 ± 0.021
36 | CUAUUG | 0.179 ± 0.031 | 1.95 ± 0.048 | 1.843 ± 0.0087 | 0.763 ± 0.041
37 | CUAUUC | 0.8316 ± 0.0023 | 2 ± 0.02 | 1.84 ± 0.055 | 0.762 ± 0.023
38 | CUAUUA | 0.569 ± 0.023 | 1.942 ± 0.019 | 1.85 ± 0.054 | 0.484 ± 0.053
39 | CUAAGC | 0.0548 ± 0.024 | 1.94 ± 0.048 | 1.851 ± 0.0075 | 0.039 ± 0.019
40 | CUAAGU | 0.447 ± 0.0085 | 1.93 ± 0.023 | 1.86 ± 0.031 | 0.262 ± 0.12
41 | GGUUUG | 0.0895 ± 0.042 | 1.9 ± 0.019 | 1.614 ± 0.0086 | 0.485 ± 0.021
42 | GGUUUA | 0.149 ± 0.053 | 1.96 ± 0.024 | 1.87 ± 0.034 | 0.3294 ± 0.00074
43 | GGUUUU | 0.313 ± 0.029 | 1.93 ± 0.053 | 1.894 ± 0.0067 | 0.378 ± 0.028
44 | UGUGUG | 0.266 ± 0.078 | 1.93 ± 0.058 | 1.676 ± 0.0071 | 0.333 ± 0.086
45 | GUAAGA | 0.291 ± 0.0051 | 1.89 ± 0.0055 | 1.73 ± 0.01 | 0.214 ± 0.029
46 | GUAAGC | 0.302 ± 0.007 | 1.886 ± 0.015 | 1.53 ± 0.023 | 0.667 ± 0.078
47 | GUAAGG | 0.181 ± 0.047 | 1.87 ± 0.042 | 1.38 ± 0.015 | 0.408 ± 0.026
48 | AUAACA | 0.00278 ± 0.0073 | 1.9 ± 0.041 | 1.83 ± 0.031 | 0.0853 ± 0.19

Row | Variant | FACS-Seq fitted mean (log10) [1] | normalized RNA/DNA level with ligand (log10) [2] | normalized RNA/DNA level without ligand (log10) [3] | FACS-Seq fitted mean (log10) [4]
49 | UUAAUA | 0.528 ± 0.021 | 1.9466 ± 0.0017 | 1.79 ± 0.029 | 0.658 ± 0.014
50 | UUCAAG | 0.352 ± 0.023 | 1.907 ± 0.0058 | 1.72 ± 0.056 | 0.545 ± 0.024
51 | UUCAAA | 0.11 ± 0.051 | 1.95 ± 0.026 | 1.802 ± 0.0086 | 0.0695 ± 0.15
52 | UUCAAU | -0.589 ± 0.025 | 1.937 ± 0.015 | 1.81 ± 0.024 | -0.1336 ± 0.00015
53 | CUAGAU | -0.176 ± 0.0088 | 1.96 ± 0.051 | 1.79 ± 0.056 | 0.0723 ± 0.049
54 | CUAGAC | 0.273 ± 0.014 | 1.901 ± 0.0041 | 1.832 ± 0.011 | 0.149 ± 0.099
55 | CUAGAA | 0.259 ± 0.2 | 1.92 ± 0.032 | 1.79 ± 0.042 | 0.359 ± 0.059
56 | AGUGUG | 0.0689 ± 0.056 | 1.8 ± 0.038 | 1.32 ± 0.038 | 0.489 ± 0.033
57 | AGUGUA | -0.349 ± 0.012 | 1.9 ± 0.044 | 1.71 ± 0.035 | -0.0909 ± 0.009
58 | GUACAA | -0.152 ± 0.025 | 1.91 ± 0.035 | 1.76 ± 0.064 | 0.27 ± 0.051
59 | GUACAG | 0.688 ± 0.084 | 1.87 ± 0.071 | 1.45 ± 0.07 | 0.818 ± 0.08
60 | AUCAAG | 0.0695 ± 0.06 | 1.85 ± 0.043 | 1.5 ± 0.06 | 0.339 ± 0.047
61 | UGUUUG | -0.153 ± 0.036 | 2.04 ± 0.037 | 1.93 ± 0.035 | 0.0349 ± 0.0062
62 | UUAAAG | 0.207 ± 0.12 | 1.886 ± 0.0075 | 1.6908 ± 0.00025 | 0.201 ± 0.0094
63 | UUAAAU | 0.322 ± 0.05 | 1.959 ± 0.016 | 1.83 ± 0.024 | 0.322 ± 0.013
64 | UUAAAA | 0.501 ± 0.012 | 1.966 ± 0.016 | 1.795 ± 0.0061 | 0.388 ± 0.15
65 | UUACUG | 0.491 ± 0.085 | 1.93 ± 0.039 | 1.67 ± 0.034 | 0.536 ± 0.13
66 | GUAGAG | 0.148 ± 0.015 | 1.83 ± 0.073 | 1.31 ± 0.16 | 0.627 ± 0.068
67 | GUAGAA | 0.2674 ± 0.0022 | 1.89 ± 0.03 | 1.723 ± 0.0046 | 0.342 ± 0.023
68 | AUAGUA | 0.52 ± 0.03 | 1.88 ± 0.034 | 1.751 ± 0.013 | 0.621 ± 0.066
69 | AUAGUG | 0.213 ± 0.046 | 1.82 ± 0.041 | 1.362 ± 0.012 | 0.348 ± 0.12
70 | GUAUCU | 0.165 ± 0.12 | 1.966 ± 0.0064 | 1.94 ± 0.025 | 0.536 ± 0.059
71 | CUAAAC | 0.4073 ± 0.0033 | 1.89 ± 0.025 | 1.827 ± 0.015 | 0.415 ± 0.1
72 | CGUUUC | 0.944 ± 0.041 | 1.95 ± 0.058 | 1.908 ± 0.0084 | 0.812 ± 0.15

Source: the supplement of paper PMC6757056
